Consider three molecules from article PMC4615246 (Nucleus, 2015).

To fix the notation:
T1: LacI-CFP-Nup133 (human, UniProt Q8WUM0 1-1156)
T1 sequence: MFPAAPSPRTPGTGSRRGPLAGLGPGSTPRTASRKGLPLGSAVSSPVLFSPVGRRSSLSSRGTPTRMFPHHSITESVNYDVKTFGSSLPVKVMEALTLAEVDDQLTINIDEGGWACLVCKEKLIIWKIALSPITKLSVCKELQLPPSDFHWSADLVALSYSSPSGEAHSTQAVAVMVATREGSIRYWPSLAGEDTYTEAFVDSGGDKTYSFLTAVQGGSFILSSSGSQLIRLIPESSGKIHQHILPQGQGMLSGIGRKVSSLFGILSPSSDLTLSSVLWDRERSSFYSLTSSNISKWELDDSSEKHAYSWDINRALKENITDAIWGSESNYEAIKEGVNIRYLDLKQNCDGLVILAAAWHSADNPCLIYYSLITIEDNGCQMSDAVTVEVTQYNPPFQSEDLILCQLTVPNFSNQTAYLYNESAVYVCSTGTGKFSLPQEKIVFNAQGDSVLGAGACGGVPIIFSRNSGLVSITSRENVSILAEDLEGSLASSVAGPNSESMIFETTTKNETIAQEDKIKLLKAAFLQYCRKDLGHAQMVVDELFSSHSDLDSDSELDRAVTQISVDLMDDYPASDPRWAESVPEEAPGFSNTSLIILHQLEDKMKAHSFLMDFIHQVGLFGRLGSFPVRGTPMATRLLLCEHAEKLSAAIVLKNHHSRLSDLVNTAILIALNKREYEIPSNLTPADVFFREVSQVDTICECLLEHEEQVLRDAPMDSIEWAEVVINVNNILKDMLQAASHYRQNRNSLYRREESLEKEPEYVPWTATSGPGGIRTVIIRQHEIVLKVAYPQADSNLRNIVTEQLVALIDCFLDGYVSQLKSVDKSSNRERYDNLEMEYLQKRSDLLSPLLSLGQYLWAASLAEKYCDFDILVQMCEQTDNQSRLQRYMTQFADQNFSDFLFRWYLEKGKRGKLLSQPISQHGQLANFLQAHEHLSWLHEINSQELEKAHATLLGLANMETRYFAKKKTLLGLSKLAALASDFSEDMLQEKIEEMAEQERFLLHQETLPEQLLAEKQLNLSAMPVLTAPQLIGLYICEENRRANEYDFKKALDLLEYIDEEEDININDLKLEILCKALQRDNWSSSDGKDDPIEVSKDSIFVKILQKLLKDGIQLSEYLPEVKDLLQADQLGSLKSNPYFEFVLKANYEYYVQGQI

T2: LacI-CFP-Nup50 (human, UniProt Q9UKX7 1-468)
T2 sequence: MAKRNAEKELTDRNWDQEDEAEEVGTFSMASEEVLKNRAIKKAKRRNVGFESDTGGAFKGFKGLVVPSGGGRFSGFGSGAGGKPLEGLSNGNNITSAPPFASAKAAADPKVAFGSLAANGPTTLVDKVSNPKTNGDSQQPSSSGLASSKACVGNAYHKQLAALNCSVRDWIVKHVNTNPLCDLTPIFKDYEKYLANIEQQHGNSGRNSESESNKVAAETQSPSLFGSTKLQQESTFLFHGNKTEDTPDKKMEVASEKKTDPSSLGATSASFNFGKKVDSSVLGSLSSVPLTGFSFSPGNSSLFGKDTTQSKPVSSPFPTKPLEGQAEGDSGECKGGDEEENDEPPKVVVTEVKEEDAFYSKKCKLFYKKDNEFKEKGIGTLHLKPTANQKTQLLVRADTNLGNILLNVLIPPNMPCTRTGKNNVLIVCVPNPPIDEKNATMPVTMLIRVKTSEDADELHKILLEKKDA

B1: Nup85 (endogenous) (natural protein)
chain: MEELDGEPTVTLIPGVNSKKNQMYFDWGPGEMLVCETSFNKKEKSEMVPSCPFIYIIRKDVDVYSQILRKLFNESHGIFLGLQRIDEELTGKSRKSQLVRVSKNYRSVIRACMEEMHQVAIAAKDPANGRQFSSQVSILSAMELIWNLCEILFIEVAPAGPLLLHLLDWVRLHVCEVDSLSADVLGSENPSKHDSFWNLVTILVLQGRLDEARQMLSKEADASPASAGICRIMGDLMRTMPILSPGNTQTLTELELKWQHWHEECERYLQDSTFATSPHLESLLKIMLGDEAALLEQKELLSNWYHFLVTRLLYSNPTVKPIDLHYYAQSSLDLFLGGESSPEPLDNILLAAFEFDIHQVIKECSIALSNWWFVAHLTDLLDHCKLLQSHNLYFGSNMREFLLLEYASGLFAHPSLWQLGVDYFDYCPELGRVSLELHIERIPLNTEQKALKVLRICEQRQMTEQVRSICKILAMKAVRNNRLGSALSWSIRAKDAAFATLVSDRFLRDYCERGCFSDLDLIDNLGPAMMLSDRLTFLGKYREFHRMYGEKRFADAASLLLSLMTSRIAPRSFWMTLLTDALPLLEQKQVIFSAEQTYELMRCLEDLTSRRPVHGESDTEQLQDDDIETTKVEMLRLSLARNLARAIIREGSLEGS
B2: Nup62 (endogenous) (natural protein)
chain: MSGFNFGGTGAPTGGFTFGTAKTATTTPATGFSFSTSGTGGFNFGAPFQPATSTPSTGLFSLATQTPATQTTGFTFGTATLASGGTGFSLGIGASKLNLSNTAATPAMANPSGFGLGSSNLTNAISSTVTSSQGTAPTGFVFGPSTTSVAPATTSGGFSFTGGSTAQPSGFNIGSAGNSAQPTAPATLPFTPATPAATTAGATQPAAPTPTATITSTGPSLFASIATAPTSSATTGLSLCTPVTTAGAPTAGTQGFSLKAPGAASGTSTTTSTAATATATTTSSSSTTGFALNLKPLAPAGIPSNTAAAVTAPPGPGAAAGAAASSAMTYAQLESLINKWSLELEDQERHFLQQATQVNAWDRTLIENGEKITSLHREVEKVKLDQKRLDQELDFILSQQKELEDLLSPLEELVKEQSGTIYLQHADEEREKTYKLAENIDAQLKRMAQDLKDIIEHLNTSGAPADTSDPLQQICKILNAHMDSLQWIDQNSALLQRKVEEVTKVCEGRRKEQERSFRITFD
B3: Nup160 (endogenous) (natural protein)
chain: MLHLSAAPPAPPPEVTATARPCLCSVGRRGDGGKMAAAGALERSFVELSGAERERPRHFREFTVCSIGTANAVAGAVKYSESAGGFYYVESGKLFSVTRNRFIHWKTSGDTLELMEESLDINLLNNAIRLKFQNCSVLPGGVYVSETQNRVIILMLTNQTVHRLLLPHPSRMYRSELVVDSQMQSIFTDIGKVDFTDPCNYQLIPAVPGISPNSTASTAWLSSDGEALFALPCASGGIFVLKLPPYDIPGMVSVVELKQSSVMQRLLTGWMPTAIRGDQSPSDRPLSLAVHCVEHDAFIFALCQDHKLRMWSYKEQMCLMVADMLEYVPVKKDLRLTAGTGHKLRLAYSPTMGLYLGIYMHAPKRGQFCIFQLVSTESNRYSLDHISSLFTSQETLIDFALTSTDIWALWHDAENQTVVKYINFEHNVAGQWNPVFMQPLPEEEIVIRDDQDPREMYLQSLFTPGQFTNEALCKALQIFCRGTERNLDLSWSELKKEVTLAVENELQGSVTEYEFSQEEFRNLQQEFWCKFYACCLQYQEALSHPLALHLNPHTNMVCLLKKGYLSFLIPSSLVDHLYLLPYENLLTEDETTISDDVDIARDVICLIKCLRLIEESVTVDMSVIMEMSCYNLQSPEKAAEQILEDMITIDVENVMEDICSKLQEIRNPIHAIGLLIREMDYETEVEMEKGFNPAQPLNIRMNLTQLYGSNTAGYIVCRGVHKIASTRFLICRDLLILQQLLMRLGDAVIWGTGQLFQAQQDLLHRTAPLLLSYYLIKWGSECLATDVPLDTLESNLQHLSVLELTDSGALMANRFVSSPQTIVELFFQEVARKHIISHLFSQPKAPLSQTGLNWPEMITAITSYLLQLLWPSNPGCLFLECLMGNCQYVQLQDYIQLLHPWCQVNVGSCRFMLGRCYLVTGEGQKALECFCQAASEVGKEEFLDRLIRSEDGEIVSTPRLQYYDKVLRLLDVIGLPELVIQLATSAITEAGDDWKSQATLRTCIFKHHLDLGHNSQAYEALTQIPDSSRQLDCLRQLVVVLCERSQLQDLVEFPYVNLHNEVVGIIESRARAVDLMTHNYYELLYAFHIYRHNYRKAGTVMFEYGMRLGREVRTLRGLEKQGNCYLAALNCLRLIRPEYAWIVQPVSGAVYDRPGASPKRNHDGECTAAPTNRQIEILELEDLEKECSLARIRLTLAQHDPSAVAVAGSSSAEEMVTLLVQAGLFDTAISLCQTFKLPLTPVFEGLAFKCIKLQFGGEAAQAEAWAWLAANQLSSVITTKESSATDEAWRLLSTYLERYKVQNNLYHHCVINKLLSHGVPLPNWLINSYKKVDAAELLRLYLNYDLLEEAVDLVSEYVDAVLGKGHQYFGIEFPLSATAPMVWLPYSSIDQLLQALGENSANSHNIALSQKILDKLEDYQQKVDKATRDLLYRRTL

The target of one assay is T1, LacI-CFP-Nup133. The assay is described as follows: LacI/LacO array recruitment in cells.
In the case of B1, the “percent of transfected cells showing colocalization” value (from here on “percent”) was 86%.
In the case of B2, the “percent” value came to 5%.
Turning to B3, the “percent” value was 44%.

In the next assay the target is T2, LacI-CFP-Nup50. The assay can be described thus: LacI/LacO array recruitment in cells.
As to B1, the “percent” value was 32%.
Consider B2, for which the “percent” value was found to be 43%.
Take B3: the “percent” value is 4%.
